Test results: paper PMC3021135

Biological target: hAGT C145S (O6-alkylguanine-DNA alkyltransferase, inactive mutant) (human, UniProt P16455 1-207, C145S)
Test: EMSA

hAGT C145S (O6-alkylguanine-DNA alkyltransferase, inactive mutant), sequence (P16455 whole entry C145S): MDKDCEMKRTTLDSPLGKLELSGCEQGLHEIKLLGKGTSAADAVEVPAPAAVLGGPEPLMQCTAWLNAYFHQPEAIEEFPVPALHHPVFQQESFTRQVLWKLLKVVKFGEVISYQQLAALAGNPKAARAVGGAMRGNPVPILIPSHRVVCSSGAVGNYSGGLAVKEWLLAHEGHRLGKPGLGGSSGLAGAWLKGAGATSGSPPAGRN

B1: Control (non-cross-linked duplex) (dsDNA)
DNA 1: CGATGTCATCG
DNA 2: CGATGACATCG
Kd: 8.36 ± 1.11 µM
